# Literature values in paper PMC6934455, “Molecular Dynamics model of peptide-protein conjugation: case study of covalent complex between Sos1 peptide and N-terminal SH3 domain from Grb2” (Scientific Reports, 2019).
# Target: Sos1 peptide (Homo sapiens) (UniProt Q07889)
# Chain of Grb2 N-terminal SH3 (P62993 1-58): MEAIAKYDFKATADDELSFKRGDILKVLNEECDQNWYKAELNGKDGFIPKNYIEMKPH
substance,measurement,value
Grb2 N-terminal SH3 (from UniProt P62993),Kd,3.5 µM
